Source: patent US20030054515A1 (MYRIAD GENETICS, published 2003)
Values belong to the binder of their own block, whether it stands above or below them.

Assays:
[1] = target: T1, Nuclear receptor coactivator 2 (NCOA2), amino acids 366-624, bait fused to the Gal4 DNA binding domain (Saccharomyces cerevisiae, UniProt P04386 1-147; Q15596 366-624); experiment: yeast two-hybrid; Gal4 DBD bait, prey from human brain library (Gal4 AD)
T1 construct: Bait expressed in yeast from vector pGBTQ as a C-terminal fusion to Gal4 DBD; Residues are counted on GenBank X97674; also called GRIP 1
Source text: A total human brain (person) cDNA library cloned into the yeast expression vector pACT2 was purchased from Clontech (human brain […] cDNA, cat. #HL4004AH), transformed into the yeast strain J692 (genotype of this strain: Mat a, ade2, his3, leu2, trp1, URA3::GAL1-lacZ LYS2::GAL1-HIS3 gal4del gal80del cyhR2), and selected for the ability to drive leucine synthesis. In these yeast cells, each cDNA is expressed as a fusion protein with the transcription activation domain of the transcription factor Gal4 (amino acids 768 to 881) and a 9 amino acid hemagglutinin epitope tag. J693 cells (Mat α type) expressing the bait were then mated with J692 cells (Mat a type) expressing proteins from the brain library. The resulting diploid yeast cells expressing proteins interacting with the bait protein were selected for the ability to synthesize tryptophan, leucine, histidine, and β-galactosidase. DNA was prepared from each clone, transformed by electroporation into E. coli strain KC8 (Clontech KC8 electrocompetent cells, cat. #C2023-1), and the cells were selected on ampicillin-containing plates in the absence of either tryptophane (selection for the bait plasmid) or leucine (selection for the brain library plasmid). DNA for both plasmids was prepared and sequenced by di-deoxynucleotide chain termination method. […]

[2] = target: T1, Nuclear receptor coactivator 2 (NCOA2), …; experiment: yeast two-hybrid; bait NCOA2 aa 366-624 (Gal4 DBD), prey from human brain library (Gal4 AD)
Source text: (§1) In these yeast cells, the bait is produced as a C-terminal fusion protein with the DNA binding domain of the transcription factor Gal4 (amino acids 1 to 147). A total human brain (person) cDNA library cloned into the yeast expression vector pACT2 was purchased from Clontech (human brain […] cDNA, cat. #HL4004AH), transformed into the yeast strain J692 (genotype of this strain: Mat a, ade2, his3, leu2, trp1, URA3::GAL1-lacZ LYS2::GAL1-HIS3 gal4del gal80del cyhR2), and selected for the ability to drive leucine synthesis. In these yeast cells, each cDNA is expressed as a fusion protein with the transcription activation domain of the transcription factor Gal4 (amino acids 768 to 881) and a 9 amino acid hemagglutinin epitope tag. J693 cells (Mat α type) expressing the bait were then mated with J692 cells (Mat a type) expressing proteins from the brain library. The resulting diploid yeast cells expressing proteins interacting with the bait protein were selected for the ability to synthesize tryptophan, leucine, histidine, and β-galactosidase. DNA was prepared from each clone, transformed by electroporation into E. coli strain KC8 (Clontech KC8 electrocompetent cells, cat. #C2023-1), and the cells were selected on ampicillin-containing plates in the absence of either tryptophane (selection for the bait plasmid) or leucine (selection for the brain library plasmid). […]

[3] = target: T1, Nuclear receptor coactivator 2 (NCOA2), …; experiment: yeast two-hybrid screen with NCOA2 as bait
Source text: as §1

B1: KIAA0619, amino acids 589-828, prey clone fused to the Gal4 activation domain (other, Saccharomyces cerevisiae;human, UniProt P04386 768-881, looked up, not shown: small tags and cut ends)
chain: ANFNQSGNIADSSLSFTFTNSSNGPNLITTQTNSQALSQPIASSNVHDNFMNNEITASKIDDGNNSKPLSPGWTDQTAYNAFGITTGMFNTTTMDDVYNYLFDDEDTPPNPKKESKQIQQLESNNRDLQDKNCLLETAKLKLEKEFINLQSALESERRDRTHGSEIINDLQGRICGLEEDLKNGKILLAKVELEKRQLQERFTDLEKEKSNMEIDMTYQLKVIQQSLEQEEAEHKATKARLADKNKIYESIEEAKSEAMKEMEKKLLEERTLKQKVENLLLEAEKRCSLLDCDLKQSQQKINELLKQKDVLNEDVRNLTLKIEQETQKRCLTQNDLKMQTQQVNTLKMSEKQLK
notes: Prey from a human brain cDNA library in pACT2; residues counted on GenBank AB014519; also called ROCK2
- binding result [1]: binds

B2: Beta catenin (B-CAT), amino acids 487-668, prey clone fused to the Gal4 activation domain (other, Saccharomyces cerevisiae;human, UniProt P04386 768-881, looked up, not shown: small tags and cut ends)
chain: ANFNQSGNIADSSLSFTFTNSSNGPNLITTQTNSQALSQPIASSNVHDNFMNNEITASKIDDGNNSKPLSPGWTDQTAYNAFGITTGMFNTTTMDDVYNYLFDDEDTPPNPKKELHYGLPVVVKLLHPPSHWPLIKATVGLIRNLALCPANHAPLREQGAIPRLVQLLVRAHQDTQRRTSMGGTQQQFVEGVRMEEIVEGCTGALHILARDVHNRIVIRGLNTIPLFVQLLYSPIENIQRVAAGVLCELAQDKEAAEAIEAEGATAPLTELLHSRNEGVATYAAAVLFRMSEDKPQ
notes: Prey from a human brain cDNA library in pACT2; residues counted on GenBank Z19054
- binding result [1]: binds

Results, then the binder that gave them:

- binding result [2]: binds
B3: XE169, amino acids 1239-1439, prey clone fused to the Gal4 activation domain (other, Saccharomyces cerevisiae;human, UniProt P04386 768-881, looked up, not shown: small tags and cut ends)
chain: ANFNQSGNIADSSLSFTFTNSSNGPNLITTQTNSQALSQPIASSNVHDNFMNNEITASKIDDGNNSKPLSPGWTDQTAYNAFGITTGMFNTTTMDDVYNYLFDDEDTPPNPKKEDTKFLCPLCMRSRRPRLETILALLVALQRLPVRLPEGEALQCLTERAISWQGRARQALASEDVTALLGRLAELRQRLQAEPRPEEPPNYPAAPASDPLREGSGKDMPKVQGLLENGDSVTSPEKVAPEEGSGLELLSSLLPQLTGPVLELPEATRAPLEELMMEGDLLEVTLDENHSIWQLLQAGQPPDLERIRTLLE
notes: Prey from a human brain cDNA library in pACT2; also called SMCX

- binding result [3]: binds
B4: PN12361, amino acids 1-223, prey clone fused to the Gal4 activation domain (other, Saccharomyces cerevisiae, not shown: small tags and cut ends)
chain: ANFNQSGNIADSSLSFTFTNSSNGPNLITTQTNSQALSQPIASSNVHDNFMNNEITASKIDDGNNSKPLSPGWTDQTAYNAFGITTGMFNTTTMDDVYNYLFDDEDTPPNPKKEMDALVEDDICILNHEKAHKRDTVTPVSIYSGDESVASHFALVTAYEDIKKRLKDSEKENSLLKKRIRFLEEKLIARFEEETSSVGREQVNKAYHAYREVCIDRDNLKSKLDKMNKDNSESLKVLNEQLQSKEVELLQLRTEVETQQVMRNLNPPSSNWEVEKLSCDLKIHGLEQELELMRKECSDLKIELQKAKQTDPYQEDNLKSRDLQKLSISSDNMQHAY
notes: range 768-881; Prey from a human brain cDNA library in pACT2; also called novel AZ2-like protein
